From article doi:10.1101/545814 (bioRxiv, 2019)
Residue numbers refer to the chain shown, from its start. Names and notes keep the numbering of the source.

T1: MBP-Epe1 (wild-type, recombinant, full length) (S. pombe, UniProt O94603 1-948)
T1 sequence: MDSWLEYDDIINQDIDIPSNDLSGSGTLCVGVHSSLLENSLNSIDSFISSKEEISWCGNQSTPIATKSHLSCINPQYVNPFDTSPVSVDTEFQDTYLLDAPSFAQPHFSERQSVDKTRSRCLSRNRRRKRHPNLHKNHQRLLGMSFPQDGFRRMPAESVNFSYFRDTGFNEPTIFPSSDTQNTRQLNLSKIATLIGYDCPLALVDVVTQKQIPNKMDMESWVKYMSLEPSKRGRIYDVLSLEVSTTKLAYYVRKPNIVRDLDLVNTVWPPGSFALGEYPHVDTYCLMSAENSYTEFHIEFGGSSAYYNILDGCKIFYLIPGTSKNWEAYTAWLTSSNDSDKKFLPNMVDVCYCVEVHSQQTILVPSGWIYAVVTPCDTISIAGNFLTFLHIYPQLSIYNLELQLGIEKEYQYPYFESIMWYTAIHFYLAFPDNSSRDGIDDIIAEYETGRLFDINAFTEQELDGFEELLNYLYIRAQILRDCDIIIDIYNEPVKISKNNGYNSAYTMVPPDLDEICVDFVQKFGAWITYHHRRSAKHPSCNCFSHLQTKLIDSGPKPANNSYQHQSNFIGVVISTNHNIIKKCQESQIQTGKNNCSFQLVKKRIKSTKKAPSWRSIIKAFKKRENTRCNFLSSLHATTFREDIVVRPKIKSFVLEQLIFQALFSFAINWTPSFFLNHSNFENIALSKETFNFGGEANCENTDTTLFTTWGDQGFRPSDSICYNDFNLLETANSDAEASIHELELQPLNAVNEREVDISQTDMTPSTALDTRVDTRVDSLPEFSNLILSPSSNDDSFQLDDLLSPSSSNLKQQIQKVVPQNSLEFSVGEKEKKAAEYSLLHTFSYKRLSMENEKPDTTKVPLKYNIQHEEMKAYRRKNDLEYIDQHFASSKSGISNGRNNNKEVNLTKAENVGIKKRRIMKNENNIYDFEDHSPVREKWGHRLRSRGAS

T2: MBP-Epe1^434-948 (S. pombe, UniProt O94603 434-948)
T2 sequence: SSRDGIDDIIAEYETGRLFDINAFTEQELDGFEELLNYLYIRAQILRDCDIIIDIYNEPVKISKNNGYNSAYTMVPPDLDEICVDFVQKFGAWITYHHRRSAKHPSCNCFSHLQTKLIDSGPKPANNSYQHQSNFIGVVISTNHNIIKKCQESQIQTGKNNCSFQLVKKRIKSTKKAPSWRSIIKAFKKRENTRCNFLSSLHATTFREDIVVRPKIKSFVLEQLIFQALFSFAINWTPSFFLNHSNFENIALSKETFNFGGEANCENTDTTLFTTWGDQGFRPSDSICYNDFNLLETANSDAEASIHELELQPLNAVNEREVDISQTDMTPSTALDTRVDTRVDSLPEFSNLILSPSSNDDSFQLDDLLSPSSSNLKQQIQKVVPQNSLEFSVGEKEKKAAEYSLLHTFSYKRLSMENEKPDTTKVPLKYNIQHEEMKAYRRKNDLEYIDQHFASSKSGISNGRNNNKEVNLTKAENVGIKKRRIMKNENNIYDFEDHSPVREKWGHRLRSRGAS

B1: 3X-FLAG Swi6^HP1 W104A (natural protein)
chain: MKKGGVRSYRRSSTSKRSVIDDDSEPELPSMTKEAIASHKADSGSSDNEVESDHESKSSSKKLKENAKEEEGGEEEEEDEYVVEKVLKHRMARKGGGYEYLLKAEGYDDPSDNTWSSEADCSGCKQLIEAYWNEHGGRPEPSKRKRTARPKKPEAKEPSPKSRKTDEDKHDKDSNEKIEDVNEKTIKFADKSQEEFNENGPPSGQPNGHIESDNESKSPSQKESNESEDIQIAETPSNVTPKKKPSPEVPKLPDNRELTVKQVENYDSWEDLVSSIDTIERKDDGTLEIYLTWKNGAISHHPSTITNKKCPQKMLQFYESHLTFRENE
B2: 3X FLAG-Swi6^HP1 purified from fission yeast cells (natural protein)
chain: B1 chain with A104W
B3: 3X FLAG-Swi6^HP1 (recombinant, E. coli) (natural protein)
chain: B1 chain with A104W
B4: MBP-Epe1^434-600 (domain or fragment)
chain: SSRDGIDDIIAEYETGRLFDINAFTEQELDGFEELLNYLYIRAQILRDCDIIIDIYNEPVKISKNNGYNSAYTMVPPDLDEICVDFVQKFGAWITYHHRRSAKHPSCNCFSHLQTKLIDSGPKPANNSYQHQSNFIGVVISTNHNIIKKCQESQIQTGKNNCSFQLV

What was measured:
Test in all cases: pull-down
[1] = target: T1, MBP-Epe1 (wild-type, recombinant, full …)
[2] = target: T2, MBP-Epe1^434-948
[3] = target: B3

Binder: B1
- binding result [1]: binds

Binder: B2
- binding result [1]: binds

Binder: B3
- binding result [2]: binds
- binding result [1]: binds

Binder: B4
- binding result [3]: binds
